Source: paper PMC7687889, “Molecular basis of EphA2 recognition by gHgL from gammaherpesviruses” (Nature Communications, 2020)

Molecular target: T1, KSHV glycoprotein L (gL), residues 21-167 (Kaposi sarcoma-associated herpesvirus …, UniProt F5HDB7 21-167)
T1 construct: source: High Five cells (baculovirus), secreted with gH, purified (HisTrap, Resource S, Superdex 200)
Assay: crystal structure; KSHV gHgL-LBD complex, mixed on ice 1 h and purified on Superdex 200 Increase; 3.2 Å
Details: both partners purified

B1: KSHV glycoprotein H (gH), residues 22-698 (domain or fragment)
chain: ATGALPTTATTITRSATQLINGRTNLSIELEFNGTSFFLNWQNLLNVITEPALTELWTSAEVAEDLRVTLKKRQSLFFPNKTVVISGDGHRYTCEVPTSSQTYNITKGFNYSALPGHLGGFGINARLVLGDIFASKWSLFARDTPEYRVFYPMNVMAVKFSISIGNNESGVALYGVVSEDFVVVTLHNRSKEANETASHLLFGLPDSLPSLKGHATYDELTFARNAKYALVAILPKDSYQTLLTENYTRIFLNMTESTPLEFTRTIQTRIVSIEARRACAAQEAAPDIFLVLFQMLVAHFLVARGIAEHRFVEVDCVCRQYAELYFLRRISRLCMPTFTTVGYNHTTLGAVAATQIARVSATKLASLPRSSQETVLAMVQLGARDGAVPSSILEGIAMVVEHMYTAYTYVYTLGDTERKLMLDIHTVLTDSCPPKDSGVSEKLLRTYLMFTSMCTNIELGEMIARFSKPDSLNIYRAFSPCFLGLRYDLHPAKLRAEAPQSSALTRTAVARGTSGFAELLHALHLDSLNLIPAINCSKITADKIIATVPLPHVTYIISSEALSNAVVYEVSEIFLKSAMFISAIKPDCSGFNFSQIDRHIPIVYNISTPRRGCPLCDSVIMSYDESDGLQSLMYVTNERVQTNLFLDKSPFFDNNNLHIHYLWLRDNGTVVEIRGMY
notes: also called KSHV gH; source: High Five cells (baculovirus), secreted with gL, purified (HisTrap, Resource S, Superdex 200)
  binding result: binds
